Drawing on patent publication CN102952191A, this text covers OD450nm for 1 molecule.

For this assay, the target named is 基因重组表达的CD33胞外区 (recombinant CD33 extracellular domain) (human) (UniProt P20138). In words: phage ELISA, CD33-ECD coated, HRP/anti-M13 detection. (In general: ELISA stands for enzyme-linked immunosorbent assay.)
UniProt P20138, sequence (P20138 18-259): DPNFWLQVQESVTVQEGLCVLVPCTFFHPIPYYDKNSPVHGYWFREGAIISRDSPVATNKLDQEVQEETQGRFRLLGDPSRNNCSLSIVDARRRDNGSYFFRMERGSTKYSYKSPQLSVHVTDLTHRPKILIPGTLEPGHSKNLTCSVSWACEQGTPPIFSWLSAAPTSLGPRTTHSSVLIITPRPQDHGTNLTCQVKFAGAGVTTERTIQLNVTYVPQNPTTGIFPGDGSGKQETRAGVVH

B1: 噬菌体展示的单链抗体ZJL101 (phage-displayed scFv ZJL101; phage clones No. 3 and No. 4, identical inserts) (scFv, not shown: large carriers)
scFv: MAQVQLVQSGTVVKKPGSSVKVSCKTSGGTLPNHAINWVRQASGQGLEWMGWMSPNTGDTGYARKFQGRVTMTRDTSISTAYMELSSLRSDDTAIYYCATGDPRVGHSWGQGTLVTVSSGGGGSGGGGSGGGGSDIQMTQSPPSLSASVGDRVTITCRASQTIGSHLNWYQQKPGKAPKLLITGASSLQSGVPARFTGSGFGTDFTLTISSLQVEDLATYSCQQTYNTPRTFGQGTKVEIK
In the case of B1, the OD450nm turned out to be 1.6 OD450nm.
